According to article PMC5839066:

Biological target: RFP-p62 (UniProt Q13501)
Assay: co-IP; COS-7 cells cotransfected with HTT fragment and RFP-p62, 100 nM bafilomycin for 4 h; lysates in SDP buffer; p62 immunoprecipitated (anti-p62 MBL PM045) overnight at 4 °C; co-precipitated HTT blotted and normalised to input

HTT aa1-1212 138Q-C6R (domain or fragment)
fold binding relative to cleavable mHTT: 2 fold
